Read-outs that look alike come from different tables or passages of the source.
Experiments:
[1] = biological target: DR5-Fc fusion protein (UniProt O14763); test: ELISA, coated DR5-Fc, anti-human Fab-HRP
[2] = biological target: DR5-Fc fusion protein (UniProt O14763); test: ELISA, coated DR5-Fc, anti-human Fab-HRP; remark: listed apart in the source

EC50 [1]: 1.4 nM | EC50 [2]: 1.2 nM
Substance: Drozitumab (antibody)
